This note sets out measurements from patent US20190389951A1 (Regeneron, published 2019).

Test [1] deals with T1, human PSMA on cells (C4-2, 22RV1, HEK293/hCD20/hPSMA) (human, UniProt Q04609 1-750).
T1 construct: C4-2 and 22RV1 express PSMA endogenously; also called FOLH1
Briefly: electrochemiluminescence cell binding (MSD), C4-2 cells.

Test [2] addresses T2, hCD28.mmh (hCD28 ecto (N19-P152).mmh) (human).
T2 construct: also called REGN2011
Kind of test: SPR (Biacore T-200), antibody captured on anti-human Fc, hCD28.mmh injected, 25 C. (In general: Surface plasmon resonance follows binding to a sensor surface in real time, without labels.)

Test [3] concerns the target T3, 6h.hPSMA (recombinant Human PSMA/FOLH1 Protein, R&D, Catalog #4234-ZN) (human, UniProt Q04609 44-750).
T3 construct: Bought protein; also called hPSMA.6H; hPSMA with an N-terminal polyhistidine tag; not shown: N-terminal polyhistidine (6-His) tag
Briefly: SPR (Biacore T-200), antibody captured on anti-human Fc, 6h.hPSMA injected, 25 C.

The target of test [4] is T4, human CD28 on cells (HEK293/hCD28 cells, human T cells, engineered reporter T-cells) (human, UniProt P10747 19-220).
T4 construct: primary human T cells carry it naturally
Briefly: flow cytometry, human CD2+ T cells.

For test [5], the target named is T3, 6h.hPSMA (recombinant Human PSMA/FOLH1 …). Kind of test: SPR (Biacore), captured antibody, 20 nM hPSMA.6H row, 37 C.
The target of test [6] is T1, human PSMA on cells (C4-2, 22RV1, …). Briefly: flow cytometry (FACS binding), MFI_APC against antibody concentration; the sheet does not name the cells; legend paragraph 55: cancer cell lines with endogenous PSMA; unit taken from the axis Log10 (M). For orientation: Flow cytometry measures light scatter and fluorescence of single cells or particles in a stream.
In test [7] the target is T2, hCD28.mmh (hCD28 ecto (N19-P152).mmh). Briefly: SPR (Biacore), captured antibody, soluble hCD28 injected, 37 C.
Test [8] addresses T4, human CD28 on cells (HEK293/hCD28 …). Kind of test: flow cytometry, human CD8+ T cells.
The target is the same in test [9]. Kind of test: electrochemiluminescence cell binding (MSD), HEK293-hCD28 cells.
Test [10] shares this target. Briefly: cell-based or functional assay.
Test [11] addresses T1, human PSMA on cells (C4-2, 22RV1, …). Briefly: flow cytometry, 22RV1 cells.
Test [12] has as its target T3, 6h.hPSMA (recombinant Human PSMA/FOLH1 …). Kind of test: SPR (Biacore), captured antibody, 10 nM hPSMA.6H row, 37 C.
In test [13] the target is T1, human PSMA on cells (C4-2, 22RV1, …). Kind of test: flow cytometry, C4-2 cells.
The target in test [14] is T4, human CD28 on cells (HEK293/hCD28 …). Briefly: cell-based or functional assay. This is another data set of the same source.
The target is the same in test [15]. Briefly: flow cytometry, human CD4+ T cells.
Test [16] concerns the target T1, human PSMA on cells (C4-2, 22RV1, …). Briefly: electrochemiluminescence cell binding (MSD), C4-2 cells; concentrations above 11.1 nM excluded.
For test [17] the target is unchanged. Kind of test: electrochemiluminescence cell binding (MSD).
In test [18] the target is T4, human CD28 on cells (HEK293/hCD28 …). Kind of test: electrochemiluminescence cell binding (MSD).
The target is the same in test [19]. Kind of test: cell-based or functional assay. This is another data set of the same source.
The target of test [20] is T1, human PSMA on cells (C4-2, 22RV1, …). Kind of test: electrochemiluminescence cell binding (MSD), supplemental experiment, C4-2 P-7 cells.

T1 sequence (Q04609 whole entry): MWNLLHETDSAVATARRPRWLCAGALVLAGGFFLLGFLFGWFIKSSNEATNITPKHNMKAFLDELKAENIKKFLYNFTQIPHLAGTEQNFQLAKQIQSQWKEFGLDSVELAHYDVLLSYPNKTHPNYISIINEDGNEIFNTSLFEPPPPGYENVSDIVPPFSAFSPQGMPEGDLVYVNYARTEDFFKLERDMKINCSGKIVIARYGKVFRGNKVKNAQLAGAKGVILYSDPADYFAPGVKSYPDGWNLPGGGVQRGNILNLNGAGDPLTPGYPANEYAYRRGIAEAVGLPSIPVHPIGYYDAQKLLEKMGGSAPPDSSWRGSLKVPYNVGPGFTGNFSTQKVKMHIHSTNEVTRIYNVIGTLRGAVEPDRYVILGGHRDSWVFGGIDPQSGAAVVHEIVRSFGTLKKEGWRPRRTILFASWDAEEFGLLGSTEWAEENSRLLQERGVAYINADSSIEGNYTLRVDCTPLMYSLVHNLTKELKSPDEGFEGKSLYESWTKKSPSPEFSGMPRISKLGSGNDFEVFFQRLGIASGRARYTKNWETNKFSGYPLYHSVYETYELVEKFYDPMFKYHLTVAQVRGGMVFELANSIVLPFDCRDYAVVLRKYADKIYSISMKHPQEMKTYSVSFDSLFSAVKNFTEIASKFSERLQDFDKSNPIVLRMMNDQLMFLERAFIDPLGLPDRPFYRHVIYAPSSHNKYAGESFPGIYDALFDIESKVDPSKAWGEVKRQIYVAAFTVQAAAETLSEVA
T3 sequence (Q04609 44-750 limits assumed): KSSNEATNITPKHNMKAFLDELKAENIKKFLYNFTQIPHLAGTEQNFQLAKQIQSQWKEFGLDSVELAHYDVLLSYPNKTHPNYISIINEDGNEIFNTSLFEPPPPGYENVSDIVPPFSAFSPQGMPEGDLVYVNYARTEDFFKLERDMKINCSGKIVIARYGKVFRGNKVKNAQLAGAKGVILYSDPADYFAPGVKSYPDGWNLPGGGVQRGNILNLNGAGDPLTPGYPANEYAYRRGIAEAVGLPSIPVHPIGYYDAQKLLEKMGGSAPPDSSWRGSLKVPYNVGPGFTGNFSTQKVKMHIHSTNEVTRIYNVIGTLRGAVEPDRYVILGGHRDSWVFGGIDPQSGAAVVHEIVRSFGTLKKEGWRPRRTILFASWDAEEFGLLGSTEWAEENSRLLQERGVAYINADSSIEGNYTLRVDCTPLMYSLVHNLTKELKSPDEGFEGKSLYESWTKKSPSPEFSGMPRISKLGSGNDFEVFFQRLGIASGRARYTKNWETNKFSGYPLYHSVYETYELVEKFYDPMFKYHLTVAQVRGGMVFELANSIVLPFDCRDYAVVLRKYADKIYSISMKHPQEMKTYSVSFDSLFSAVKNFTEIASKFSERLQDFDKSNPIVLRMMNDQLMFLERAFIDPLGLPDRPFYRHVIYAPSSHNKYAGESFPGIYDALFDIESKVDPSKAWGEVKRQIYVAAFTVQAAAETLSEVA

B1: mAb14216P2 (antibody, V domains shown)
VH: EVQLVESGGGLVQPGGSLRLSCAASGFTFSRNNMHWVRQAPGKGLEYVSGISSNGGRTYYADSVKGRFTISRDNSKNTLYLQMGGLRAADMAVYFCTRDDELLSFDYWGQGTLVTVSS
VL: not shown
notes: Bivalent parental anti-CD28 antibody; also called anti-CD28 monoclonal antibody
Regarding B1, the binding result in [1] was “no binding (tested: ratio to HEK293HZ less than 3 at 11.1 nM)”; in [3] it was “no binding (tested: 10 nM)”. The “T½ (dissociative half-life)” value in test [2] is 8.2 min.

B2: bs16429D (bispecific antibody, human IgG4 S228P, kappa)
heavy 1: QVQLQESGPGLVKPSETLSLTCTVSGGSISSYYWSWIRQPPGKGLEWIGYIYYSGITHYNPSLKSRVTISVDTSKIQFSLKLSSVTAADTAVYYCARWGVRRDYYYYGMDVWGQGTTVTVSSASTKGPSVFPLAPCSRSTSESTAALGCLVKDYFPEPVTVSWNSGALTSGVHTFPAVLQSSGLYSLSSVVTVPSSSLGTKTYTCNVDHKPSNTKVDKRVESKYGPPCPPCPAPPVAGPSVFLFPPKPKDTLMISRTPEVTCVVVDVSQEDPEVQFNWYVDGVEVHNAKTKPREEQFNSTYRVVSVLTVLHQDWLNGKEYKCKVSNKGLPSSIEKTISKAKGQPREPQVYTLPPSQEEMTKNQVSLTCLVKGFYPSDIAVEWESNGQPENNYKTTPPVLDSDGSFFLYSRLTVDKSRWQEGNVFSCSVMHEALHNRFTQKSLSLSPGK
heavy 2: QVQLVESGGGVVQPGRSLRLSCAASGFTFSSYGMHWVRQAPGKGLEWVAFMSYDGSNKFYSDSVKGRFTISRDNSRKMLFLQMNNLRAEDTAVYYCARDQYYDFLTDHGVFDYWGQGTLVTVSSASTKGPSVFPLAPCSRSTSESTAALGCLVKDYFPEPVTVSWNSGALTSGVHTFPAVLQSSGLYSLSSVVTVPSSSLGTKTYTCNVDHKPSNTKVDKRVESKYGPPCPPCPAPPVAGPSVFLFPPKPKDTLMISRTPEVTCVVVDVSQEDPEVQFNWYVDGVEVHNAKTKPREEQFNSTYRVVSVLTVLHQDWLNGKEYKCKVSNKGLPSSIEKTISKAKGQPREPQVYTLPPSQEEMTKNQVSLTCLVKGFYPSDIAVEWESNGQPENNYKTTPPVLDSDGSFFLYSRLTVDKSRWQEGNVFSCSVMHEALHNHYTQKSLSLSLGK
light: not shown
notes: also called anti-PSMA×CD28 bispecific antibody; PSMA × CD28 monoclonal antibody
With B2, the EC50 came to 48 nM in test [4]; 9.34 nM in test [6]; 58.9 nM in [8]; 9.58 nM in [9]; 3.05 nM in [11]; 0.853 nM in [1]. Moreover, the figures for the EC50 in [13] and in test [15] were 3.87 nM and 50.9 nM, respectively. Further, the Kd in test [5] came out at 0.217 nM; in test [7] it was 272 nM; in [12] it was 0.396 nM; in [2], 144 nM; in [3], 0.251 nM. For the same molecule, the “t½ (dissociative half-life)” value in [5] was 182 min; in test [7], 1.7 min; in [12], 146 min. In [10], the “NFκB-luciferase EC50, reporter T-cells + HEK293/hCD20/hPSMA, 50 pM anti-CD3×CD20” value is 1.72e-10 M. The “T½ (dissociative half-life)” value in test [2] was found to be 3.5 min; in test [3], 235 min. For the same molecule, the “IL-2 production EC50, primary CD4+ T-cells + HEK293/hCD20/hPSMA, 50 pM anti-CD3×CD20” value in test [14] was 2.7e-10 M.

B3: mAb11838P2 (antibody, V domains shown)
VH: QVQLVESGGGVVQPGRSLRLSCAASGFTFSSYGMHWVRQAPGKGLEWVAFMSYDGSNKFYSDSVKGRFTISRDNSRKMLFLQMNNLRAEDTAVYYCARDQYYDFLTDHGVFDYWGQGTLVTVSS
VL: not shown
notes: Bivalent parental anti-PSMA antibody; also called anti-PSMA monoclonal antibody; mAb11838P2 (PSMA)
As for B3, the binding result in [9] was “no binding (tested: ratio to HEK293HZ less than 3 at 11.1 nM)”. This molecule also had a concentration giving a half-maximal response (EC50) in [16] of 0.738 nM. Moreover, the “ratio of binding signal (RLU) C4-2/HEK293HZ at 11.1 nM” value in [17] was 4 fold. Moreover, the “ratio of binding signal (RLU) HEK293-hCD28/HEK293HZ at 11.1 nM” value in test [18] is less than 1 fold.

B4: mAb14226P2 (antibody, V domains shown)
VH: QVQLQESGPGLVKPSETLSLTCTVSGGSISSYYWSWIRQPPGKGLEWIGYIYYSGITHYNPSLKSRVTISVDTSKIQFSLKLSSVTAADTAVYYCARWGVRRDYYYYGMDVWGQGTTVTVSS
VL: not shown
notes: as for B1
As for B4, in test [19], the “NFκB-luciferase EC50, reporter T-cells + HEK293/hCD20, 50 pM hIgG4 isotype control (no TCR stimulation)” value worked out at 5.11e-09 M and the “NFκB-luciferase EC50, reporter T-cells + HEK293/hCD20/hPSMA, 50 pM hIgG4 isotype control (no TCR stimulation)” value came to 4.9e-09 M. Further, in [10], the “NFκB-luciferase EC50, reporter T-cells + HEK293/hCD20, 50 pM anti-CD3×CD20” value was 3.59e-09 M and the “NFκB-luciferase EC50, reporter T-cells + HEK293/hCD20/hPSMA, 50 pM anti-CD3×CD20” value was found to be 3.27e-09 M. Besides, the binding result in test [20] is “no binding”. In test [2], the “T½ (dissociative half-life)” value was 3.5 min. Also, in test [14], the “IL-2 production EC50, primary CD4+ T-cells + HEK293/hCD20, 50 pM anti-CD3×CD20” value stood at 6.05e-09 M and the “IL-2 production EC50, primary CD4+ T-cells + HEK293/hCD20/hPSMA, 50 pM anti-CD3×CD20” value amounted to 8.69e-09 M. In addition, the binding result in test [3] was “no binding (tested: 10 nM)”.

B5: bs16430D (bispecific antibody, V domains shown)
VH 1: EVQLVESGGGLVQPGGSLRLSCAASGFTFSTYAMTWVRQAPGKGLEWVSFISGSGDNTYYADSVKGRFTISRDNSKNTLYLQMNSLRADDSAIYHCAKDSGYCSSGGCSLYFYYGMDVWGQGTTVTVSS
VH 2: QVQLVESGGGVVQPGRSLRLSCAASGFTFSSYGMHWVRQAPGKGLEWVAVISYAGNNKYYADSVKGRFTVSRDNSKKTLYLQMNSLRSEDTAVYYCAKDSYYDFLTDPDVLDIWGQGTMVTVSS
VL: not shown
notes: two distinct heavy chains with a common light chain; also called anti-PSMA×CD28 bispecific antibody; PSMA × CD28 monoclonal antibody
As for B5, in [19], the “NFκB-luciferase fold induction, reporter T-cells + HEK293/hCD20, 50 pM hIgG4 isotype control (no TCR stimulation)” value came out at 0.87 fold and the “NFκB-luciferase fold induction, reporter T-cells + HEK293/hCD20/hPSMA, 50 pM hIgG4 isotype control (no TCR stimulation)” value worked out at 0.89 fold. For the same molecule, the EC50 in test [9] worked out at 8.47 nM. Also, in test [10], the “NFκB-luciferase EC50, reporter T-cells + HEK293/hCD20/hPSMA, 50 pM anti-CD3×CD20” value worked out at 4.57e-10 M; the “NFκB-luciferase fold induction, reporter T-cells + HEK293/hCD20, 50 pM anti-CD3×CD20” value stood at 0.92 fold; the “NFκB-luciferase fold induction, reporter T-cells + HEK293/hCD20/hPSMA, 50 pM anti-CD3×CD20” value was found to be 13.6 fold. Also, the response in [1] was half-maximal at 5.24 nM (EC50). In test [14], the “IL-2 production EC50, primary CD4+ T-cells + HEK293/hCD20/hPSMA, 50 pM anti-CD3×CD20” value was 1.5e-10 M; the “IL-2 production fold induction, primary CD4+ T-cells + HEK293/hCD20, 50 pM anti-CD3×CD20” value was 1 fold; the “IL-2 production fold induction, primary CD4+ T-cells + HEK293/hCD20/hPSMA, 50 pM anti-CD3×CD20” value was found to be 165 fold. Moreover, the “ratio of binding signal (RLU) C4-2/HEK293HZ at 11.1 nM” value in [17] amounted to 10 fold. Besides, in [18], the “ratio of binding signal (RLU) HEK293-hCD28/HEK293HZ at 11.1 nM” value turned out to be 41 fold.

B6: bs16431D (bispecific antibody, V domains shown)
VH 1: B5 VH 2
VH 2: B1 VH
VL: not shown
notes: as for B5
On to B6, for which the EC50 was determined as 180 nM in test [4]; 180 nM in test [8]; 5.31 nM in [9]; 6.33 nM in [11]; 1.5 nM in [13]; 0.35 nM in test [16]. This molecule displayed an EC50 in test [15] of 167 nM. Also, the “NFκB-luciferase EC50, reporter T-cells + HEK293/hCD20/hPSMA, 50 pM anti-CD3×CD20” value in test [10] is 2.78e-10 M. The results for the Kd in [2] and in test [3] were 207 nM and 0.137 nM, respectively. The results for the “T½ (dissociative half-life)” value in [2] and in test [3] were 8.2 min and 300 min, respectively. Also, the “IL-2 production EC50, primary CD4+ T-cells + HEK293/hCD20/hPSMA, 50 pM anti-CD3×CD20” value in [14] came to 2.2e-10 M.

Usually EC50 stands for the concentration giving half of the maximal effect. Read a high EC50 as weaker potency. By Kd is commonly meant the equilibrium constant for the complex coming apart.
